Assay: RP-HPLC: insulin apparent solubility / percent recovery
Settings: 7 days at 2-8° C.
Experimental: Apparent solubility was measured as the percent insulin recovery as compared to the initial formulations/conditions.
Samples were prepared by withdrawing 100 μL from each vial at every time point and centrifuging prior to loading. Samples were stored in an autosampler at 4° C. prior to use, and were considered stable for 3 days after preparation. All samples were tested in duplicate.
For insulin, 20 μL was injected for each HPLC run.
To determine the apparent solubility, the peak area of insulin/insulin analog main peak and desamido peak were integrated and combined together to calculate the percentage relative to the standards. […] The data were processed using Design-Expert® 7.0 (StatEase) and the “historical data” feature. Insulin percent purity was expressed as the percent of main insulin versus all insulin species.

**Q.** What does the source list for Insulin Aspart?
**A.** Solubility of Insulin Aspart, % remaining of the original concentration (0.2% methylparaben + […] m-cresol, pH 6.6, NaCl 50 mM): 57.7%; Solubility of Insulin Aspart, % remaining of the original concentration (0.2% methylparaben + […] m-cresol, pH 6.6, NaCl 80 mM): 32.1%; Solubility of Insulin Aspart, % remaining of the original concentration (0.2% methylparaben + […] m-cresol, pH 6.6, NaCl 110 mM): 21.1%; Solubility of Insulin Aspart, % remaining of the original concentration (0.2% methylparaben + […] m-cresol, pH 6.6, NaCl 140 mM): 14.7%; Solubility of Insulin Aspart, % remaining of the original concentration (0.2% methylparaben + […] m-cresol, pH 6.8, NaCl 50 mM): 97.2%; Solubility of Insulin Aspart, % remaining of the original concentration (0.2% methylparaben + […] m-cresol, pH 6.8, NaCl 80 mM): 84.1%; Solubility of Insulin Aspart, % remaining of the original concentration (0.2% methylparaben + […] m-cresol, pH 6.8, NaCl 110 mM): 54.2%; Solubility of Insulin Aspart, % remaining of the original concentration (0.2% methylparaben + […] m-cresol, pH 6.8, NaCl 140 mM): 32.2%; Solubility of Insulin Aspart, % remaining of the original concentration (0.2% methylparaben + […] m-cresol, pH 7.0, NaCl 50 mM): 98.7%; Solubility of Insulin Aspart, % remaining of the original concentration (0.2% methylparaben + […] m-cresol, pH 7.0, NaCl 80 mM): 100.2%; Solubility of Insulin Aspart, % remaining of the original concentration (0.2% methylparaben + […] m-cresol, pH 7.0, NaCl 110 mM): 96.3%; Solubility of Insulin Aspart, % remaining of the original concentration (0.2% methylparaben + […] m-cresol, pH 7.0, NaCl 140 mM): 67.9%; Solubility of Insulin Aspart, % remaining of the original concentration (0.2% methylparaben + […] m-cresol, pH 7.2, NaCl 50 mM): 99.0%; Solubility of Insulin Aspart, % remaining of the original concentration (0.2% methylparaben + […] m-cresol, pH 7.2, NaCl 80 mM): 100.2%; Solubility of Insulin Aspart, % remaining of the original concentration (0.2% methylparaben + […] m-cresol, pH 7.2, NaCl 110 mM): 99.5%; Solubility of Insulin Aspart, % remaining of the original concentration (0.2% methylparaben + […] m-cresol, pH 7.2, NaCl 140 mM): 101.6%; Solubility of Insulin Aspart, % remaining of the original concentration (0.2% methylparaben + […] m-cresol, pH 7.4, NaCl 50 mM): 99.1%; Solubility of Insulin Aspart, % remaining of the original concentration (0.2% methylparaben + […] m-cresol, pH 7.4, NaCl 80 mM): 100.5%; Solubility of Insulin Aspart, % remaining of the original concentration (0.2% methylparaben + […] m-cresol, pH 7.4, NaCl 110 mM): 99.6%; Solubility of Insulin Aspart, % remaining of the original concentration (0.2% methylparaben + […] m-cresol, pH 7.4, NaCl 140 mM): 99.6%; Solubility of Insulin Aspart, % remaining of the original concentration (0.2% methylparaben + […] m-cresol, pH 7.6, NaCl 50 mM): 99.3%; Solubility of Insulin Aspart, % remaining of the original concentration (0.2% methylparaben + […] m-cresol, pH 7.6, NaCl 80 mM): 100.6%; Solubility of Insulin Aspart, % remaining of the original concentration (0.2% methylparaben + […] m-cresol, pH 7.6, NaCl 110 mM): 99.8%; Solubility of Insulin Aspart, % remaining of the original concentration (0.2% methylparaben + […] m-cresol, pH 7.6, NaCl 140 mM): 99.8%; Solubility of Insulin Aspart, % remaining of the original concentration (0.2% phenol + […] m-cresol, pH 6.6, NaCl 50 mM): 91.8%; Solubility of Insulin Aspart, % remaining of the original concentration (0.2% phenol + […] m-cresol, pH 6.6, NaCl 80 mM): 59.2%; Solubility of Insulin Aspart, % remaining of the original concentration (0.2% phenol + […] m-cresol, pH 6.6, NaCl 110 mM): 58.0%; Solubility of Insulin Aspart, % remaining of the original concentration (0.2% phenol + […] m-cresol, pH 6.6, NaCl 140 mM): 39.3%; Solubility of Insulin Aspart, % remaining of the original concentration (0.2% phenol + […] m-cresol, pH 6.8, NaCl 50 mM): 98.8%; Solubility of Insulin Aspart, % remaining of the original concentration (0.2% phenol + […] m-cresol, pH 6.8, NaCl 80 mM): 91.8%; Solubility of Insulin Aspart, % remaining of the original concentration (0.2% phenol + […] m-cresol, pH 6.8, NaCl 110 mM): 72.8%; Solubility of Insulin Aspart, % remaining of the original concentration (0.2% phenol + […] m-cresol, pH 6.8, NaCl 140 mM): 50.9%; Solubility of Insulin Aspart, % remaining of the original concentration (0.2% phenol + […] m-cresol, pH 7.0, NaCl 50 mM): 99.1%; Solubility of Insulin Aspart, % remaining of the original concentration (0.2% phenol + […] m-cresol, pH 7.0, NaCl 80 mM): 100.6%; Solubility of Insulin Aspart, % remaining of the original concentration (0.2% phenol + […] m-cresol, pH 7.0, NaCl 110 mM): 99.9%; Solubility of Insulin Aspart, % remaining of the original concentration (0.2% phenol + […] m-cresol, pH 7.0, NaCl 140 mM): 88.9%; Solubility of Insulin Aspart, % remaining of the original concentration (0.2% phenol + […] m-cresol, pH 7.2, NaCl 50 mM): 99.1%; Solubility of Insulin Aspart, % remaining of the original concentration (0.2% phenol + […] m-cresol, pH 7.2, NaCl 80 mM): 100.5%; Solubility of Insulin Aspart, % remaining of the original concentration (0.2% phenol + […] m-cresol, pH 7.2, NaCl 110 mM): 100.0%; Solubility of Insulin Aspart, % remaining of the original concentration (0.2% phenol + […] m-cresol, pH 7.2, NaCl 140 mM): 99.7%; Solubility of Insulin Aspart, % remaining of the original concentration (0.2% phenol + […] m-cresol, pH 7.4, NaCl 50 mM): 99.2%; Solubility of Insulin Aspart, % remaining of the original concentration (0.2% phenol + […] m-cresol, pH 7.4, NaCl 80 mM): 100.6%; Solubility of Insulin Aspart, % remaining of the original concentration (0.2% phenol + […] m-cresol, pH 7.4, NaCl 110 mM): 100.0%; Solubility of Insulin Aspart, % remaining of the original concentration (0.2% phenol + […] m-cresol, pH 7.4, NaCl 140 mM): 99.7%; Solubility of Insulin Aspart, % remaining of the original concentration (0.2% phenol + […] m-cresol, pH 7.6, NaCl 50 mM): 99.2%; Solubility of Insulin Aspart, % remaining of the original concentration (0.2% phenol + […] m-cresol, pH 7.6, NaCl 80 mM): 100.8%; Solubility of Insulin Aspart, % remaining of the original concentration (0.2% phenol + […] m-cresol, pH 7.6, NaCl 110 mM): 100.2%; Solubility of Insulin Aspart, % remaining of the original concentration (0.2% phenol + […] m-cresol, pH 7.6, NaCl 140 mM): 99.8%; Solubility of Insulin Aspart, % remaining of the original concentration ([…] phenol + […] m-cresol, pH 6.6, NaCl 50 mM): 97.9%; Solubility of Insulin Aspart, % remaining of the original concentration ([…] phenol + […] m-cresol, pH 6.6, NaCl 80 mM): 86.3%; Solubility of Insulin Aspart, % remaining of the original concentration ([…] phenol + […] m-cresol, pH 6.6, NaCl 110 mM): 54.4%; Solubility of Insulin Aspart, % remaining of the original concentration ([…] phenol + […] m-cresol, pH 6.6, NaCl 140 mM): 38.3%; Solubility of Insulin Aspart, % remaining of the original concentration ([…] phenol + […] m-cresol, pH 6.8, NaCl 50 mM): 99.8%; Solubility of Insulin Aspart, % remaining of the original concentration ([…] phenol + […] m-cresol, pH 6.8, NaCl 80 mM): 97.9%; Solubility of Insulin Aspart, % remaining of the original concentration ([…] phenol + […] m-cresol, pH 6.8, NaCl 110 mM): 97.5%; Solubility of Insulin Aspart, % remaining of the original concentration ([…] phenol + […] m-cresol, pH 6.8, NaCl 140 mM): 60.5%; Solubility of Insulin Aspart, % remaining of the original concentration ([…] phenol + […] m-cresol, pH 7.0, NaCl 50 mM): 99.7%; Solubility of Insulin Aspart, % remaining of the original concentration ([…] phenol + […] m-cresol, pH 7.0, NaCl 80 mM): 99.3%; Solubility of Insulin Aspart, % remaining of the original concentration ([…] phenol + […] m-cresol, pH 7.0, NaCl 110 mM): 99.3%; Solubility of Insulin Aspart, % remaining of the original concentration ([…] phenol + […] m-cresol, pH 7.0, NaCl 140 mM): 100.2%; Solubility of Insulin Aspart, % remaining of the original concentration ([…] phenol + […] m-cresol, pH 7.2, NaCl 50 mM): 99.1%; Solubility of Insulin Aspart, % remaining of the original concentration ([…] phenol + […] m-cresol, pH 7.2, NaCl 80 mM): 99.2%; Solubility of Insulin Aspart, % remaining of the original concentration ([…] phenol + […] m-cresol, pH 7.2, NaCl 110 mM): 99.2%; Solubility of Insulin Aspart, % remaining of the original concentration ([…] phenol + […] m-cresol, pH 7.2, NaCl 140 mM): 101.1%; Solubility of Insulin Aspart, % remaining of the original concentration ([…] phenol + […] m-cresol, pH 7.4, NaCl 50 mM): 100.0%; Solubility of Insulin Aspart, % remaining of the original concentration ([…] phenol + […] m-cresol, pH 7.4, NaCl 80 mM): 99.6%; Solubility of Insulin Aspart, % remaining of the original concentration ([…] phenol + […] m-cresol, pH 7.4, NaCl 110 mM): 99.5%; Solubility of Insulin Aspart, % remaining of the original concentration ([…] phenol + […] m-cresol, pH 7.4, NaCl 140 mM): 101.1%; Solubility of Insulin Aspart, % remaining of the original concentration ([…] phenol + […] m-cresol, pH 7.6, NaCl 50 mM): 100.1%; Solubility of Insulin Aspart, % remaining of the original concentration ([…] phenol + […] m-cresol, pH 7.6, NaCl 80 mM): 99.7%; Solubility of Insulin Aspart, % remaining of the original concentration ([…] phenol + […] m-cresol, pH 7.6, NaCl 110 mM): 99.4%; Solubility of Insulin Aspart, % remaining of the original concentration ([…] phenol + […] m-cresol, pH 7.6, NaCl 140 mM): 101.1%
